Experiments:
[1] = molecular target: T1, FimI-FimAtHis (the two subunits of the ternary FimCHisIA complex) (E. coli W3110 | E. coli, UniProt P39264 20-179; P04128 37-182); assay: 37 °C, excess FimC; printed as 0.18 h-1
T1 chain 1: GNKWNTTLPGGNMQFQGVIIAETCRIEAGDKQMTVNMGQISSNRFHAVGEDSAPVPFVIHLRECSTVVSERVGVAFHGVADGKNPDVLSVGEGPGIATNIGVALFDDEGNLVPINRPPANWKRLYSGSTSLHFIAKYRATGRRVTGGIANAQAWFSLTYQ
T1 chain 2: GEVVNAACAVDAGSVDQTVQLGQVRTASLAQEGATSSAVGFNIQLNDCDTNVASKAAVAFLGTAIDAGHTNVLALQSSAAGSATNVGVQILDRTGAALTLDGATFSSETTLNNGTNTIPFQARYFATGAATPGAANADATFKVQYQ

[2] = molecular target: T2, FimFt (E. coli); assay: 37 °C, excess FimC; printed as 0.44 h-1
T2 chain: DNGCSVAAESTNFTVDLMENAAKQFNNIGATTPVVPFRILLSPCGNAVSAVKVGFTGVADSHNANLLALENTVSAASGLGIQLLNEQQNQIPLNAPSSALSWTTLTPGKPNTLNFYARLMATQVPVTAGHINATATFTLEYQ

[3] = molecular target: T3, FimF-FimGt (the two subunits of the ternary FimCHisFG complex) (E. coli, UniProt P08189 21-176; P08190 24-167); assay: 37 °C, excess FimC; printed as 0.49 h-1
T3 chain 1: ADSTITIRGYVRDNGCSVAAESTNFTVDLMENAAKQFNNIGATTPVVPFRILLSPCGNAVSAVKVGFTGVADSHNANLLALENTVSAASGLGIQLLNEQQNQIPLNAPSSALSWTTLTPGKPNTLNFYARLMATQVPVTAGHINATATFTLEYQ
T3 chain 2: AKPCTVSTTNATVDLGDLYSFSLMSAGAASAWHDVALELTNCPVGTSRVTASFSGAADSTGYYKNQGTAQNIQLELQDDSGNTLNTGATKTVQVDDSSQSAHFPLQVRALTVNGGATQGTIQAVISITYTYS

[4] = molecular target: T4, FimI (E. coli W3110, UniProt P39264 20-179); assay: 37 °C, excess FimC
T4 chain: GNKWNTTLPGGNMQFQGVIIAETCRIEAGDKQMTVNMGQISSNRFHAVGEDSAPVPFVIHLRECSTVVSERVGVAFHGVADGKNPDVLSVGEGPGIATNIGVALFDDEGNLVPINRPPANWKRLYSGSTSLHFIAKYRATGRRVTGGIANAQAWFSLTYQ

koff [1]: 5e-05 s⁻¹
koff [2]: 0.000122 s⁻¹
koff [3]: 0.000136 s⁻¹
koff [4]: 0.011 s⁻¹
B1: FimCHis (FimC with C-terminal hexahistidine tag) (natural protein)
chain: GVALGATRVIYPAGQKQEQLAVTNNDENSTYLIQSWVENADGVKDGRFIVTPPLFAMKGKKENTLRILDATNNQLPQDRESLFWMNVKAIPSMDKSKLTENTLQLAIISRIKLYYRPAKLALPPDQAAEKLRFRRSANSLTLINPTPYYLTVTELNAGTRVLENALVPPMGESTVKLPSDAGSNITYRTINDYGALTPKMTGVME

From publication PMC10673952 (2023)
